Source: patent publication US20220251236A1 (Boehringer Ingelheim, published 2022)
Positions count from the first letter of the chain named.

B1: DLL3#3/CD3#1 (bispecific antibody, human IgG1, kappa, lambda, L234A L235A)
chain 1: DIQMTQSPSAMSASVGDRVTITCRASQGISNYLVWFQQKPGKAPKRLIYAVSSLYSGVPSRFSGSGSGTEFTLTISSLQPEDFATYYCLQHDSYPYTFGQGTKLEIKRTVAAPSVFIFPPSDEQLKSGTASVVCLLNNFYPREAKVQWKVDNALQSGNSQESVTEQDSKDSTYSLSSTLTLSKADYEKHKVYACEVTHQGLSSPVTKSFNRGECGGGGSEGKSSGSGSESKSTEGKSSGSGSESKSTGGGGSQVQLVQSGAEVKKPGASVKVSCKASGYTFTSYYVHWVRQAPGQGLEWMVIINPGGGTTSYAQKFLGRVTMTRDTSTNTVYMELKSLRSEDTAVYYCARGEAVTGNYFYYGMDVWGQGTTVTVSSASTKGPSVFPLAPSSKSTSGGTAALGCLVKDYFPEPVTVSWNSGALTSGVHTFPAVLQSSGLYSLSSVVTVPSSSLGTQTYICNVNHKPSNTKVDKRVEPKSCDKTHTCPPCPAPEAAGGPSVFLFPPKPKDTLMISRTPEVTCVVVDVSHEDPEVKFNWYVDGVEVHNAKTKPREEQYNSTYRVVSVLTVLHQDWLNGKEYKCKVSNKALPAPIEKTISKAKGQPREPQVYTLPPSREEMTKNQVSLWCLVKGFYPSDIAVEWESNGQPENNYKTTPPVLDSDGSFFLYSKLTVDKSRWQQGNVFSCSVMHEALHNHYTQKSLSLSPG
chain 2: EAVVTQEPSLTVSPGGTVTLTCRSSTGAVTTSNYANWVQEKPGQLPRGLIGGTNKRAPWVPARFSGSLLGGKAALTLSGAQPEDEAEYFCALWYSNLWVFGGGTKLTVLGQPKAAPSVTLFPPSSEELQANKATLVCLISDFYPGAVKVAWKADGSPVNTGVETTTPSKQSNNKYAASSYLSLTPEQWKSHRSYSCQVTHEGSTVEKTVAPAECSGGGGSEGKSSGSGSESKSTEGKSSGSGSESKSTGGGGSEVQLVESGGGLVQPGGSLKLSCAASGFTFNTYAMNWVRQAPGKGLEWVARIRSKYNNYATYYADSVKDRFTISRDDSKNTAYLQMNNLKTEDTAVYYCVRHGNFGNSYVSWFAYWGQGTLVTVSAASTKGPSVFPLAPSSKSTSGGTAALGCLVKDYFPEPVTVSWNSGALTSGVHTFPAVLQSSGLYSLSSVVTVPSSSLGTQTYICNVNHKPSNTKVDKRVEPKSCDKTHTCPPCPAPEAAGGPSVFLFPPKPKDTLMISRTPEVTCVVVDVSHEDPEVKFNWYVDGVEVHNAKTKPREEQYNSTYRVVSVLTVLHQDWLNGKEYKCKVSNKALPAPIEKTISKAKGQPREPQVYTLPPSREEMTKNQVSLSCAVKGFYPSDIAVEWESNGQPENNYKTTPPVLDSDGSFFLVSKLTVDKSRWQQGNVFSCSVMHEALHNRFTQKSLSLSPG
notes: Heterodimer of one DLL3 chain and one CD3 chain (scFab-Fc, knob-in-hole)
B2: DLL3#4/CD3#1 (bispecific antibody, human IgG1, kappa, lambda, L234A L235A)
chain 1: not shown
chain 2: B1 chain 2
notes: as for B1
B3: DLL3#3/CD3#2 (bispecific antibody, human IgG1, kappa, lambda, L234A L235A)
chain 1: B1 chain 1
chain 2: B1 chain 2 with N309I
notes: as for B1

Experiments:
[1] = target: T1, chicken egg white lysozyme (chicken, UniProt P00698 19-147); experiment: SPR (Biacore T200), lysozyme coupled to CM5 chip, non-specific binding assay
T1 construct: also called Lysozyme (positive)
Method: The experiment was performed on a Biacore T200. The dilution, surface preparation, and binding experiments were performed at 25° C. in 1×HBS-EP buffer prepared from 10× HBS-EP. The flow rate for both the immobilization protocol and binding experiment was at 5 μL/min.
To prepare the surface for the non-specific binding experiment, chicken egg white lysozyme and trypsin inhibitor from glycine max soybean were coupled manually to a series S CM5 chip with the surface density of 3000-5000 RU using the amine coupling kit according to the manufacture instructions.
Samples were prepared at 1 μM in 1×HBS-EP buffer. The samples were injected over activated surfaces with a 10 min association and 10 min dissociation. The data was collected using Biacore T200 Control Software version 2.0.1 and analyzed using Biacore T200 Evaluation Software version 3.0.

Cyno DLL3-His = target: T2, Cyno DLL3-His (cynomolgus monkey, UniProt Q9NYJ7 27-492 (human entry)); experiment: SPR (ProteOn XPR36), bispecific captured on protein A/G, DLL3 as analyte, Example 4A
T2 construct: also called cy DLL3; recombinant cyno DLL3-ECD
T2 chain: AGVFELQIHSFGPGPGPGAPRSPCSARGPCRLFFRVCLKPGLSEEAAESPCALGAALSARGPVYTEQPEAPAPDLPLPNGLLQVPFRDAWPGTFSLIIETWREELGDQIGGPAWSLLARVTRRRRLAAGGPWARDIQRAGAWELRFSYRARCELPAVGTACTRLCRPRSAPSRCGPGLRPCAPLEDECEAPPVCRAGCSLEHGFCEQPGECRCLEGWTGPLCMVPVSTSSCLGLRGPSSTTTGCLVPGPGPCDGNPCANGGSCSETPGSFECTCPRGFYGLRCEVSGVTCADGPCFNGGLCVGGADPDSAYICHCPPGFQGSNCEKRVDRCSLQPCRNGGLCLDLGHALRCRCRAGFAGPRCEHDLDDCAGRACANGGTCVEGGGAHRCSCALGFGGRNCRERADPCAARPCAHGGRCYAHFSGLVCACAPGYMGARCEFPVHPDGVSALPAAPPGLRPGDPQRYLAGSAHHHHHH
Method: (§1) The binding affinity of purified DLL3/CD3 bispecific constructs for recombinant human and cyno DLL3-ECD and Fc-fusion proteins of human and cyno CD3 εγ subunits was determined by Surface Plasmon Resonance (SPR), using a ProteOn XPR36 instrument (Bio-Rad). The running buffer and all dilutions (except where stated) were done in PBS-T-EDTA. The GLM sensor chip (Bio-Rad) was normalized and pre-conditioned as per the manufacturer's recommendations. The sensor chip was activated with equal mixture of EDC/s-NHS in the horizontal direction for 300 sec at a flow rate of 30 ul/min and immobilized with protein A/G (20 ug/ml in 10 mM acetate pH 4.5) in the horizontal direction for 300 sec at a flowrate of 30 ul/min resulting in ˜5000 RU of protein A/G on the surface. The sensor chip was deactivated with 1M ethanolamine HCl in the horizontal direction for 300 sec at a flowrate of 30 μl/min.
For binding kinetic determination to DLL3, bispecific molecules were captured individually on the protein A/G surface vertically for 250 sec at a flowrate of 25 μl/min. The baseline was stabilized by injecting PBS-T-EDTA for 60 sec at a flowrate of 40 μl/min horizontally. The analyte (hu DLL3 or cy DLL3) was injected horizontally over the captured antibody for 600 sec at a flowrate of 40 μl/min and a dissociation for 2700 sec.
(§2) The inter spot (interactions with sensor surface) and blank (PBS-T-EDTA) were subtracted from the raw data.

[2] = target: T3, human DLL3 (endogenous, on SCLC cell lines NCI-H82 and SHP77 and in SCLC tissue) (human, UniProt Q9NYJ7 27-618); experiment: flow cytometry titration on SHP77 cells, PE anti-human secondary, x-fold over background
T3 construct: whole, on cells; also called SCLC cell lines expressing DLL3
T3 sequence (looked up): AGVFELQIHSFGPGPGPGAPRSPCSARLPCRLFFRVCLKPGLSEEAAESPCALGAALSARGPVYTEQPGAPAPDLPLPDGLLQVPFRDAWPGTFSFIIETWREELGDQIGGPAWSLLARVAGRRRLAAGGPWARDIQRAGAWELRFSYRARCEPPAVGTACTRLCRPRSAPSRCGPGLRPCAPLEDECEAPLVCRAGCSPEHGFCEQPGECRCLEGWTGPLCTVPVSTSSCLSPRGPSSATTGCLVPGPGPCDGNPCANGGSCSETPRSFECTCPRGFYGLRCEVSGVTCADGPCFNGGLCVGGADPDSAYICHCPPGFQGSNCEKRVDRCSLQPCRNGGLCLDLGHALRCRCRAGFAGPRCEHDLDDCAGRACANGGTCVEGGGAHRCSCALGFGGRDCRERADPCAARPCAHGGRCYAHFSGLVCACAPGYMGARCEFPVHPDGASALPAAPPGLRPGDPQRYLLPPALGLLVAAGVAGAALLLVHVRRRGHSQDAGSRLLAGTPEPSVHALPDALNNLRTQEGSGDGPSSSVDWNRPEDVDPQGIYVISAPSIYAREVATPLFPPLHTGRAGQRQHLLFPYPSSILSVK
Source text: (§3) Cells (T cells or human SCLC cells) were stained with increasing concentrations of two-step purified DLL3/CD3 binding proteins with increasing concentrations in FACS buffer (PBS/0.5% BSA/0.05% sodium azide). Bound molecules were detected with PE-conjugated anti-human secondary antibody (Sigma-Aldrich, #P8047).

[3] = target: T3, human DLL3 (endogenous, on SCLC cell …); experiment: flow cytometry titration on NCI-H82 cells, PE anti-human secondary, x-fold over background
Source text: as §3

Cyno CD3 E+G HuFc-6xHis = target: T4, Cyno CD3 E+G HuFc-6xHis (cynomolgus monkey); experiment: SPR (ProteOn XPR36), CD3εγ-Fc amine-coupled, bispecific as analyte, equilibrium fit, Example 4A
T4 construct: also called cy CD3εγ-Fc; Recomb; Cyno CD3 εγ
Method: as §1
For binding kinetic determination to CD3, hu CD3εγ-Fc and cy CD3εγ-Fc (dissolved in pH 4.5 acetate) was immobilized directly onto the sensor surface through amine coupling for 140 sec at a flowrate of 30 μl/min vertically. The baseline was stabilized by injecting PBS-T-EDTA for 60 sec at a flowrate of 40 μl/min horizontally. The analyte (the bispecific molecule) was injected horizontally over the captured CD3εγ-Fc construct for 600 sec at a flowrate of 40 μl/min and a dissociation for 600 sec.
as §2

T1 sequence (P00698 19-147): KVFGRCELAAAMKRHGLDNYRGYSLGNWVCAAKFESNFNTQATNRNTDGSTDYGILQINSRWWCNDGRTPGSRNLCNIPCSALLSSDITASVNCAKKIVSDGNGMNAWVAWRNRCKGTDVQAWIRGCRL
T4 sequence (chain, as listed by the source limits assumed): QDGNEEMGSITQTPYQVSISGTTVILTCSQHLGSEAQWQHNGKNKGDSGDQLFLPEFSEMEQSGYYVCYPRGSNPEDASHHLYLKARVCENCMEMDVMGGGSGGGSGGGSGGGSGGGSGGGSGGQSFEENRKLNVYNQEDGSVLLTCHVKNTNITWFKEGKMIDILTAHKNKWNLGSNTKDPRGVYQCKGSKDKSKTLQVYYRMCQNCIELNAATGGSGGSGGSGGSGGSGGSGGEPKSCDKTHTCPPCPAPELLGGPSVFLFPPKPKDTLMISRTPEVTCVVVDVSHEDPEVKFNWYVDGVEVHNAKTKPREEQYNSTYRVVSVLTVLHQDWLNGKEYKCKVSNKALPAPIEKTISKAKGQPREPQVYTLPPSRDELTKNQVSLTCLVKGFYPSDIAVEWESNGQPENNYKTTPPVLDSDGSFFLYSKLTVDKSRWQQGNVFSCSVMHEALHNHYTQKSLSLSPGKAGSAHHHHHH

Binder	binding result [1]	Kd (Cyno DLL3-His) [nM]	EC50 (read off the curve) [2] [nM]	EC50 (read off the curve) [3] [nM]	Kd (Cyno CD3 E+G HuFc-6xHis) [nM]
B1	no binding (tested: 1 µM)	< 0.01			
B2			~2	~0.1	
B3	no binding (tested: 1 µM)	< 0.01			100
